The results in this text go back to PMC5402698.

Data set [1] addresses T1, EcoRV endonuclease (wild type) (UniProt P04390 2-245). Kind of data set: X-ray crystallography.
The target in data set [2] is T1, EcoRV endonuclease (wild type). The data set is described as follows: NMR.
The target is the same in data set [3]. Kind of data set: NMR. The source holds these as a separate data set.
For data set [4] the target is unchanged. Kind of data set: X-ray crystallography. The source holds these as a separate data set.
For data set [5] the target is unchanged. Kind of data set: NMR. This is another data set of the same source.

T1 sequence (P04390 2-245): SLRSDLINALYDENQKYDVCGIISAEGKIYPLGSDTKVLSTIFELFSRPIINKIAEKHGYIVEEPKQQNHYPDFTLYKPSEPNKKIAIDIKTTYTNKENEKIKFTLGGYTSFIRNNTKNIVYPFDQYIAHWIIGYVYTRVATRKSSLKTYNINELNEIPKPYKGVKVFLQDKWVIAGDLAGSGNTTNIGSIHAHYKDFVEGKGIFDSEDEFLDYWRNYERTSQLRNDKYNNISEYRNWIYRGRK

B1: cleaved 12 bp crystal duplex (dsDNA)
DNA 1: AAAGAT
DNA 2: ATCTTT
B1: the binding result in data set [1] is on record as “binds”.

B2: nonspecific 16 bp inverted site CTATAG (dsDNA)
DNA 1: GCAAACTATAGTTTCG
DNA 2: CGAAACTATAGTTTGC
As to B2, the binding result in data set [2] is “binds”.

B3: cleaved 24 bp duplex products (dsDNA)
DNA 1: CGCTGGAAAGAT
DNA 2: ATCTTTCCAGCG
DNA 3: ATCTTTGGAGGC
DNA 4: GCCTCCAAAGAT
For B3, the binding result in data set [3] is “binds”.

B4: cognate 12 bp crystal duplex (dsDNA)
DNA 1: AAAGATATCTTT
DNA 2: AAAGATATCTTT
As to B4, the binding result in data set [4] is listed as “binds”.

B5: cognate 16 bp GATATC (dsDNA)
DNA 1: GCAAAGATATCTTTCG
DNA 2: CGAAAGATATCTTTGC
For B5, the binding result in data set [5] is listed as “binds”.
